Data as given in patent publication US20240400657A1 (MorphoSys, published 2024).

What was measured:
[1] = molecular target: T1, full length rat C5aR stably expressed on CHO Flp-In cells (rat (Rattus norvegicus), UniProt P97520 1-352); assay: FACS, CHO Flp-In cells expressing rat C5aR, single IgG concentration
T1 sequence: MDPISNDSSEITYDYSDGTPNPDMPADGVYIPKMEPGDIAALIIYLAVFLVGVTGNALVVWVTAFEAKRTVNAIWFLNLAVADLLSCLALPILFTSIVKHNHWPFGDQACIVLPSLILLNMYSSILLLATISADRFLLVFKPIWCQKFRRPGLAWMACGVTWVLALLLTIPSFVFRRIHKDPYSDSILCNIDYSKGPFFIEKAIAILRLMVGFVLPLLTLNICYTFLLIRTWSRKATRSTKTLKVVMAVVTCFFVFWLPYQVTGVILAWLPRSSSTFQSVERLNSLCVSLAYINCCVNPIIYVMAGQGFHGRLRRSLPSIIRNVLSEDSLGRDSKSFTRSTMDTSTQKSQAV

Human C1q = molecular target: T2, Human C1q (human, UniProt P02745 23-245; P02746 28-253; P02747 29-245); assay: BLI (Octet), IgG captured via anti-hu Fab CH1 kappa/lambda on SA sensors, C1q titrated
T2 construct: mature; Plasma-derived complex; also called C1q protein; huC1q
T2 sequence (P02745 23-245, chain 1 of 3): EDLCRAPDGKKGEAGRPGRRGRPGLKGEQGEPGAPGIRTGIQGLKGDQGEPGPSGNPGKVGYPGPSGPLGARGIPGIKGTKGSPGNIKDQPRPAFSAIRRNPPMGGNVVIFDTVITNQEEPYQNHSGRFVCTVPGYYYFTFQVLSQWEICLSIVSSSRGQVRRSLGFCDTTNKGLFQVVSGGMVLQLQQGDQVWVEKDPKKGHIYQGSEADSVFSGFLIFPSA
T2 sequence (P02746 28-253, chain 2 of 3): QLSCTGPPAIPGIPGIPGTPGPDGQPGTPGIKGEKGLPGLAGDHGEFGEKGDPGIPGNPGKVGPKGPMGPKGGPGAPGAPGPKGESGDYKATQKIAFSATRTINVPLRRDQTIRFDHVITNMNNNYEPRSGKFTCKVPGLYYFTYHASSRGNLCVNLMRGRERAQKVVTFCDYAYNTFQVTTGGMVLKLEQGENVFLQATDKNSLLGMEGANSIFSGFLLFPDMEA
T2 sequence (P02747 29-245, chain 3 of 3): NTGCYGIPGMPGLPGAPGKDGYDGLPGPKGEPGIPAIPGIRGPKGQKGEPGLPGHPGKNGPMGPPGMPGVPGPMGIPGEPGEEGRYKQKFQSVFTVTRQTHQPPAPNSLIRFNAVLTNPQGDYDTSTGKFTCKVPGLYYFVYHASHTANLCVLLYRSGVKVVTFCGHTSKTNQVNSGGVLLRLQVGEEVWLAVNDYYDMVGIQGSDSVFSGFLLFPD
Source text: 2.0 nm of IgGs diluted in Octet® buffer were captured onto anti-hu Fab CH1 kappa/lambda (BAC) immobilised onto streptavidin (SA) sensors (FortéBIO, Pall Life Sciences). […] All sensorgrams were fitted using Data Analysis Software 9 (FortéBIO, Pall Life Sciences) to determine the apparent affinity. The data was fitted with a steady state model.

Myoglobin = assay: Protein Panel Profiling (3P), MSD ECL, coated antigen, IgG 10 nM
Procedure: (§1) 32 different proteins and controls were coated on two 384-well MSD standard plates at a concentration of 1.0 μg/mL at 4° C. over night. The coating solution was discarded and plates were blocked with 50 μL 3% (w/v) BSA in PBS for one hour at RT on a microtiter plate shaker (˜500 rpm) followed by three washing steps with 50 μL washing buffer (PBS with 0.05% (v/v) Tween 20). IgG samples were diluted to 100 nM and 10 nM in assay buffer (PBS with 0.5% (w/v) BSA, 0.05% (v/v) Tween 20). As controls, isotype control antibody MOR03207 (IgG1f_AEASS) and assay buffer were used. Samples and controls were added at 30 μL/well and incubated for three hours at RT on a microtiter plate shaker. The plates were washed three times and 30 μL detection antibody (ECL-labeled anti-human Fab) were added per well and incubated for one hour on a microtiter plate shaker (˜500 rpm). After washing the MSD plate and adding 35 μL/well MSD Read Buffer T with surfactant, electro-chemiluminescence signals were detected using a SECTOR® Imager S600 instrument (Meso Scale Diagnostics).
(§2) For evaluation, binding signals of the antibody sample to a certain protein were divided by the respective binding signals of the reference antibody MOR03207 resulting in a binding ratio (BR). The cumulative binding ratio (CBR) of all proteins except the controls (25 in total) was then calculated: CBR up to 150 indicates an IgG without detectable unspecific binding. Values above 150 indicates an IgG with increased unspecific binding compared to the reference antibody MOR03207.

Amyloglycosidase = assay: as above
Procedure: as §1, §2

Lysozyme = assay: as above
Chain of Lysozyme (P00698 19-147): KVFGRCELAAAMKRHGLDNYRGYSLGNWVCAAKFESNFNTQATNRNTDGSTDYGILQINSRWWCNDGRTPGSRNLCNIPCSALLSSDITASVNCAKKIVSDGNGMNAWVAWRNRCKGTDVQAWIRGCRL
Procedure: as §1, §2

Ovalbumin = assay: as above
Chain of Ovalbumin (P01012 2-386): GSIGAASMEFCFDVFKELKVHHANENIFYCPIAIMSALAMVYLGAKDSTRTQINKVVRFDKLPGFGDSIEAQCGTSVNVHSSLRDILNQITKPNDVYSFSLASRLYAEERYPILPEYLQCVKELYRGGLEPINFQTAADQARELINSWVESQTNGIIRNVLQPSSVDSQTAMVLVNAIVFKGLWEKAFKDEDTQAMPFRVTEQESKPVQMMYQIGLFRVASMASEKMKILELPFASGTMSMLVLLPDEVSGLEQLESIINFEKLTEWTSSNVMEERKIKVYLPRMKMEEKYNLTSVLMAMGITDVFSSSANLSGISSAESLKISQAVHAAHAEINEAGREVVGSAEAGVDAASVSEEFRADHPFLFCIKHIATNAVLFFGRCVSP
Procedure: as §1, §2

Fibrinogen (b) = Fibrinogen (b) (bovine); assay: as above
Chain of Fibrinogen (b) (bovine) (P02672 20-615, chain 1 of 3): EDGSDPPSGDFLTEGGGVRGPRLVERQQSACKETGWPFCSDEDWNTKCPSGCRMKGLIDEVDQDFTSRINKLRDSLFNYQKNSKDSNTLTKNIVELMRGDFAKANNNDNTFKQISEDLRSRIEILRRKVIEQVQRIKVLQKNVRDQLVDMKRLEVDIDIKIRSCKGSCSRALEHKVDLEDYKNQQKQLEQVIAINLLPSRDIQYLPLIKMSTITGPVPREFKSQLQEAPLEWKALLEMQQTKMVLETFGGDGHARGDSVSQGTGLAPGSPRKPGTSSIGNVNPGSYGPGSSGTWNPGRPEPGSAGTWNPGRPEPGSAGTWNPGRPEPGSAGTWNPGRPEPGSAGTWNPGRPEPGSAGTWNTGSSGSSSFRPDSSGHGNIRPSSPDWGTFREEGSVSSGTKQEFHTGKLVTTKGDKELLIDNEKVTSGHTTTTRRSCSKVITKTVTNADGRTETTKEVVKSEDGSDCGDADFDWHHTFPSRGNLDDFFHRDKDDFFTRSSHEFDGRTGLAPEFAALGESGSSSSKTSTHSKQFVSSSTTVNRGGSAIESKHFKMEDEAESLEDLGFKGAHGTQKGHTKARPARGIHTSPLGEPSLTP
Chain of Fibrinogen (b) (bovine) (P02676 whole entry, chain 2 of 3, further chain): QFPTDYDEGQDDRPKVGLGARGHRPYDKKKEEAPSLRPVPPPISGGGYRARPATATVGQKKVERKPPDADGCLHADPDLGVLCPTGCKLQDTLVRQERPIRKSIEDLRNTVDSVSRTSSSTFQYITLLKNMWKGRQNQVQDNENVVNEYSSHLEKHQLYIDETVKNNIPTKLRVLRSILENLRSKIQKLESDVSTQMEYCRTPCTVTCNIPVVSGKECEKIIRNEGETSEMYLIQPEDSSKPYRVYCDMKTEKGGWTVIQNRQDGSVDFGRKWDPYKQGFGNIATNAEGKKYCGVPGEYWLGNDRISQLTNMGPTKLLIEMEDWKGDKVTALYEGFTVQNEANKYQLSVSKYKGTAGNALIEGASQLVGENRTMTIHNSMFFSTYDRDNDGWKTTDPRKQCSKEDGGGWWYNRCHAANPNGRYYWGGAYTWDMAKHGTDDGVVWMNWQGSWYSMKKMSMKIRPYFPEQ
Chain of Fibrinogen (b) (bovine) (P12799 25-444, chain 3 of 3, further chain): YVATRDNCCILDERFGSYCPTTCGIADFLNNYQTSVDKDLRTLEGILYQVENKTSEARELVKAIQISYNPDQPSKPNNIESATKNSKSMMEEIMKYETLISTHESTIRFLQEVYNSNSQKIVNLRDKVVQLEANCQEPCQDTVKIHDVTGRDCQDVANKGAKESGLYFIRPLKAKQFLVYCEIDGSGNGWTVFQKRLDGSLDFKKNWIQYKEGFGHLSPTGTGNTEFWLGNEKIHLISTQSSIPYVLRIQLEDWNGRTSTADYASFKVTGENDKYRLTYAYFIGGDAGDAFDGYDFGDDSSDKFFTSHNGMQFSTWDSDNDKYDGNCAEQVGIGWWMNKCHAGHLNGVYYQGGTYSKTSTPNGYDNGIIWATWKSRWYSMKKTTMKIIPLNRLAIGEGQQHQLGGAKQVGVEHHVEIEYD
Procedure: as §1, §2

[2] = molecular target: T3, full-length human FPR1 expressed on CHO Flp-In cells (human, UniProt P21462 1-350); assay: FACS, CHO Flp-In cells expressing human FPR1, single IgG concentration
T3 construct: also called fMet-Leu-Phe receptor
T3 chain: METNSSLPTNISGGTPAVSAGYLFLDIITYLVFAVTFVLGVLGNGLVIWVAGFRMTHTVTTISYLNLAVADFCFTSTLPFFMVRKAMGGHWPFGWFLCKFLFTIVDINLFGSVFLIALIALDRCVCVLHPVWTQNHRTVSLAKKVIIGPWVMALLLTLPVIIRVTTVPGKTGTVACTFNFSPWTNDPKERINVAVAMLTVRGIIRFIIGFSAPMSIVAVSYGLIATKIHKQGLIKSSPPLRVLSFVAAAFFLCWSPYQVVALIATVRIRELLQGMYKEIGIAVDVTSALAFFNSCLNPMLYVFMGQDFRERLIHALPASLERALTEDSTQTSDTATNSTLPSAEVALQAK

[3] = molecular target: T4, full length mouse C5aR stably expressed on CHO Flp-In cells (mouse (Mus musculus), UniProt P30993 1-351); assay: FACS, CHO Flp-In cells expressing murine C5aR, single IgG concentration
T4 sequence: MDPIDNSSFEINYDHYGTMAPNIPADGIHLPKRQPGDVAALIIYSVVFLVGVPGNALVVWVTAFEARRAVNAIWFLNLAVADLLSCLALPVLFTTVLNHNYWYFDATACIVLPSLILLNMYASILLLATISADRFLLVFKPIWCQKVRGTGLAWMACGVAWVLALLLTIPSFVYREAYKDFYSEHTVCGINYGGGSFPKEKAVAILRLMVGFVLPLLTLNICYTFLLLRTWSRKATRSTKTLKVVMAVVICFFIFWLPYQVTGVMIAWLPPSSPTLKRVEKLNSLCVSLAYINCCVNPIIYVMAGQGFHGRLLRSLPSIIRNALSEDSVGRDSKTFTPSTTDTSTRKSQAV

[4] = molecular target: T5, Mouse FcRn p51 [1-297]/AviHis/p14 biotinylated (mouse, UniProt Q61559 22-298; P01887 21-119, biotinylated in vitro with BirA (Avi tag)); assay: BLI (Octet HTX), biotinylated FcRn on SA sensors, IgG titrated, steady state fit, apparent KD, pH 6.0
T5 construct: Heterodimer; UniProt Q61559 (p51); also called Murine FcRn
T5 chain 1: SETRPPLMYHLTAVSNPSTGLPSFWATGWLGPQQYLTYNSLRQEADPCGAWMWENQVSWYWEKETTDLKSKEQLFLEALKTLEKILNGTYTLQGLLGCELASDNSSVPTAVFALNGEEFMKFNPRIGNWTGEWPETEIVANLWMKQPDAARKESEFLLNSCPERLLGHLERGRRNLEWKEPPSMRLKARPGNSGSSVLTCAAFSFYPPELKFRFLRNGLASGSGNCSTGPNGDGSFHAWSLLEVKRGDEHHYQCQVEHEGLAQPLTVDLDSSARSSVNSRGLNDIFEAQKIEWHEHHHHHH
T5 chain 2: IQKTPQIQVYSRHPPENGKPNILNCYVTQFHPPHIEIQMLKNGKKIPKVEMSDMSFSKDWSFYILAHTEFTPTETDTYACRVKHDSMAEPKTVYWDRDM
Source text: (§3) 0.5 nm of biotinylated human, cynomolgus, mouse and rat FcRn were captured on streptavidin (SA) sensors (FortéBIO, Pall Life Sciences). […] All sensorgrams were fitted using Data Analysis Software 10.0 (FortéBIO, Pall Life Sciences) to determine the apparent affinity and the data was fitted with a steady state model.

[5] = molecular target: T6, Rat FcRn p51 [1-298]/AviHis/p14 biotinylated (rat, UniProt P13599 23-299; P07151 21-119, biotinylated in vitro with BirA (Avi tag)); assay: as above
T6 construct: Heterodimer; UniProt P13599 (p51)
T6 sequence 1: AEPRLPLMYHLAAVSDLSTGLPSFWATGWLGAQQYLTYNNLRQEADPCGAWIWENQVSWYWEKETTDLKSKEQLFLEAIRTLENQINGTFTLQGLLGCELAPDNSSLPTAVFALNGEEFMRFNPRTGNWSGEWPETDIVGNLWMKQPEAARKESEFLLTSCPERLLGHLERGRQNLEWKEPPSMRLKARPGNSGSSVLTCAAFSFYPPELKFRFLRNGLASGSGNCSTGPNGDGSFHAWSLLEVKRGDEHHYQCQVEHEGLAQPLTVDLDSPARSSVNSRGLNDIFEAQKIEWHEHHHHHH
T6 sequence 2: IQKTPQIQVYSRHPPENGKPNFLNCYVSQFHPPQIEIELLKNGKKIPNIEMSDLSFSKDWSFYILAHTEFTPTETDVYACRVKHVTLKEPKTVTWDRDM
Source text: as §3

B1: MAB #2 (antibody, human IgG1, lambda)
heavy: EVQLVESGGGLVKPGGSLRLSCAASGFTFSSYAMHWVRQAPGKGLEWVGRIKSVAQGGTTDYAAHVKGRFTISRDDSKNTLYLQMNSLKTEDTAVYYCARVSHSTFDVWGQGTLVTVSSASTKGPSVFPLAPSSKSTSGGTAALGCLVKDYFPEPVTVSWNSGALTSGVHTFPAVLQSSGLYSLSSVVTVPSSSLGTQTYICNVNHKPSNTKVDKRVEPKSCDKTHTCPPCPAPEAEGAPSVFLFPPKPKDTLMISRTPEVTCVVVDVSHEDPEVKFNWYVDGVEVHNAKTKPREEQYNSTYRVVSVLTVLHQDWLNGKEYKCKVSNKALPSSIEKTISKAKGQPREPQVYTLPPSREEMTKNQVSLTCLVKGFYPSDIAVEWESNGQPENNYKTTPPVLDSDGSFFLYSKLTVDKSRWQQGNVFSCSVMHEALHNHYTQKSLSLSPGK
light: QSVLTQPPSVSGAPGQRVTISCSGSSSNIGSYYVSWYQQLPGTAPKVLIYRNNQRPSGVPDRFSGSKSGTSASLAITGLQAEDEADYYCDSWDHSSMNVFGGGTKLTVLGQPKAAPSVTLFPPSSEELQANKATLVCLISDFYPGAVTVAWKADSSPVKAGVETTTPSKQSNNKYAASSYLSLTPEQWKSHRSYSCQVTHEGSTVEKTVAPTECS
notes: lambda 1 light chain
For B1, the binding result [1] was “no binding (tested: 300 nM)”, the binding result (Human C1q) was “no binding (tested: 500 nM (highest C1q concentration))” and the “binding ratio (signal / signal of MOR03207)” value (Myoglobin) was 1. For the same binder, the “binding ratio (signal / signal of MOR03207)” value (Amyloglycosidase) was 1, the “binding ratio (signal / signal of MOR03207)” value (Lysozyme) was 1 and the “binding ratio (signal / signal of MOR03207)” value (Ovalbumin) was 1. The “binding ratio (signal / signal of MOR03207)” value (Fibrinogen (b)) was 1, the binding result [2] was “no binding (tested: 300 nM)” and the binding result [3] was “no binding (tested: 300 nM)”. For the same binder, the Kd [4] was 7.3 nM and the Kd [5] was 10 nM.

B2: MAB #1 (antibody, human IgG1, lambda)
heavy: EVQLVESGGGLVKPGGSLRLSCAASGFTFSSYAMHWVRQAPGKGLEWVGRIKSKAQGGTTDYAAHVKGRFTISRDDSKNTLYLQMNSLKTEDTAVYYCARVSFSTFDVWGQGTLVTVSSASTKGPSVFPLAPSSKSTSGGTAALGCLVKDYFPEPVTVSWNSGALTSGVHTFPAVLQSSGLYSLSSVVTVPSSSLGTQTYICNVNHKPSNTKVDKRVEPKSCDKTHTCPPCPAPEAEGAPSVFLFPPKPKDTLMISRTPEVTCVVVDVSHEDPEVKFNWYVDGVEVHNAKTKPREEQYNSTYRVVSVLTVLHQDWLNGKEYKCKVSNKALPSSIEKTISKAKGQPREPQVYTLPPSREEMTKNQVSLTCLVKGFYPSDIAVEWESNGQPENNYKTTPPVLDSDGSFFLYSKLTVDKSRWQQGNVFSCSVMHEALHNHYTQKSLSLSPGK
light: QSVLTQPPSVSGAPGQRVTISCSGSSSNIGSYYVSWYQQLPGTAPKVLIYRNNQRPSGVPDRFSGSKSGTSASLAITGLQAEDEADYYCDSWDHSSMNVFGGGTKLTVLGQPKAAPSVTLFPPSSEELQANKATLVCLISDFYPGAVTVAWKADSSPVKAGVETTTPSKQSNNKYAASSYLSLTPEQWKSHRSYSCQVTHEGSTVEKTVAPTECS
notes: lambda 1 light chain, VH3-15 framework
With B2 the binding result [1] was “no binding (tested: 300 nM)”, the binding result (Human C1q) was “no binding (tested: 500 nM (highest C1q concentration))” and the “binding ratio (signal / signal of MOR03207)” value (Myoglobin) was 1. The “binding ratio (signal / signal of MOR03207)” value (Amyloglycosidase) was 1, the “binding ratio (signal / signal of MOR03207)” value (Lysozyme) was 1 and the “binding ratio (signal / signal of MOR03207)” value (Ovalbumin) was 1. For the same binder, the “binding ratio (signal / signal of MOR03207)” value (Fibrinogen (b)) was 1, the binding result [2] was “no binding (tested: 300 nM)” and the binding result [3] was “no binding (tested: 300 nM)”. The Kd [4] was 4.3 nM and the Kd [5] was 5.7 nM.
